B1: AKR1D1 (natural protein, human, UniProt P51857 1-326, looked up)
chain: MDLSAASHRIPLSDGNSIPIIGLGTYSEPKSTPKGACATSVKVAIDTGYRHIDGAYIYQNEHEVGEAIREKIAEGKVRREDIFYCGKLWATNHVPEMVRPTLERTLRVLQLDYVDLYIIEVPMAFKPGDEIYPRDENGKWLYHKSNLCATWEAMEACKDAGLVKSLGVSNFNRRQLELILNKPGLKHKPVSNQVECHPYFTQPKLLKFCQQHDIVITAYSPLGTSRNPIWVNVSSPPLLKDALLNSLGKRYNKTAAQIVLRFNIQRGVVVIPKSFNLERIKENFQIFDFSLTEEEMKDIEALNKNVRFVELLMWRDHPEYPFHDEY
notes: AKR1D1; protein on the human proteome microarray; source: spotted on the HuProt human proteome microarray
B2: SLC25A16 (natural protein, human, UniProt P16260 1-332, looked up)
chain: MAAATAAAALAAADPPPAMPQAAGAGGPTTRRDFYWLRSFLAGGIAGCCAKTTVAPLDRVKVLLQAHNHHYKHLGVFSALRAVPQKEGFLGLYKGNGAMMIRIFPYGAIQFMAFEHYKTLITTKLGISGHVHRLMAGSMAGMTAVICTYPLDMVRVRLAFQVKGEHSYTGIIHAFKTIYAKEGGFFGFYRGLMPTILGMAPYAGVSFFTFGTLKSVGLSHAPTLLGRPSSDNPNVLVLKTHVNLLCGGVAGAIAQTISYPFDVTRRRMQLGTVLPEFEKCLTMRDTMKYVYGHHGIRKGLYRGLSLNYIRCIPSQAVAFTTYELMKQFFHLN
notes: SLC25A16; protein on the human proteome microarray; source: spotted on the HuProt human proteome microarray
B3: SDS (natural protein, human, UniProt P20132 1-328, looked up)
chain: MMSGEPLHVKTPIRDSMALSKMAGTSVYLKMDSAQPSGSFKIRGIGHFCKRWAKQGCAHFVCSSAGNAGMAAAYAARQLGVPATIVVPSTTPALTIERLKNEGATVKVVGELLDEAFELAKALAKNNPGWVYIPPFDDPLIWEGHASIVKELKETLWEKPGAIALSVGGGGLLCGVVQGLQEVGWGDVPVIAMETFGAHSFHAATTAGKLVSLPKITSVAKALGVKTVGAQALKLFQEHPIFSEVISDQEAVAAIEKFVDDEKILVEPACGAALAAVYSHVIQKLQLEGNLRTPLPSLVVIVCGGSNISLAQLRALKEQLGMTNRLPK
notes: SDS; protein on the human proteome microarray; source: spotted on the HuProt human proteome microarray
B4: RAB5A (natural protein, human, UniProt P20339 1-215, looked up)
chain: MASRGATRPNGPNTGNKICQFKLVLLGESAVGKSSLVLRFVKGQFHEFQESTIGAAFLTQTVCLDDTTVKFEIWDTAGQERYHSLAPMYYRGAQAAIVVYDITNEESFARAKNWVKELQRQASPNIVIALSGNKADLANKRAVDFQEAQSYADDNSLLFMETSAKTSMNVNEIFMAIAKKLPKNEPQNPGANSARGRGVDLTEPTQPTRNQCCSN
notes: RAB5A; protein on the human proteome microarray; source: spotted on the HuProt human proteome microarray
B5: RAB5C (natural protein, human, UniProt P51148 1-216, looked up)
chain: MAGRGGAARPNGPAAGNKICQFKLVLLGESAVGKSSLVLRFVKGQFHEYQESTIGAAFLTQTVCLDDTTVKFEIWDTAGQERYHSLAPMYYRGAQAAIVVYDITNTDTFARAKNWVKELQRQASPNIVIALAGNKADLASKRAVEFQEAQAYADDNSLLFMETSAKTAMNVNEIFMAIAKKLPKNEPQNATGAPGRNRGVDLQENNPASRSQCCSN
notes: RAB5C; protein on the human proteome microarray; source: spotted on the HuProt human proteome microarray
B6: RALY (natural protein, human, UniProt Q9UKM9 1-306, looked up)
chain: MSLKLQASNVTNKNDPKSINSRVFIGNLNTALVKKSDVETIFSKYGRVAGCSVHKGYAFVQYSNERHARAAVLGENGRVLAGQTLDINMAGEPKPDRPKGLKRAASAIYSGYIFDYDYYRDDFYDRLFDYRGRLSPVPVPRAVPVKRPRVTVPLVRRVKTNVPVKLFARSTAVTTSSAKIKLKSSELQAIKTELTQIKSNIDALLSRLEQIAAEQKANPDGKKKGDGGGAGGGGGGGGSGGGGSGGGGGGGSSRPPAPQENTTSEAGLPQGEARTRDDGDEEGLLTHSEEELEHSQDTDADDGALQ
notes: RALY; protein on the human proteome microarray; source: spotted on the HuProt human proteome microarray
B7: RAB2B (natural protein, human, UniProt Q8WUD1 1-216, looked up)
chain: MTYAYLFKYIIIGDTGVGKSCLLLQFTDKRFQPVHDLTIGVEFGARMVNIDGKQIKLQIWDTAGQESFRSITRSYYRGAAGALLVYDITRRETFNHLTSWLEDARQHSSSNMVIMLIGNKSDLESRRDVKREEGEAFAREHGLIFMETSAKTACNVEEAFINTAKEIYRKIQQGLFDVHNEANGIKIGPQQSISTSVGPSASQRNSRDIGSNSGCC
notes: RAB2B; protein on the human proteome microarray; source: spotted on the HuProt human proteome microarray
B8: TMEM116 (natural protein, human, UniProt Q8NCL8 1-245, looked up)
chain: MKHTQSGQSTSPLVIDYTCRVCQMAFVFSSLIPLLLMTPVFCLGNTSECFQNFSQSHKCILMHSPPSAMAELPPSANTSVCSTLYFYGIAIFLGSFVLSLLTIMVLLIRAQTLYKKFVKSTGFLGSEQWAVIHIVDQRVRFYPVAFFCCWGPAVILMIIKLTKPQDTKLHMALYVLQALTATSQGLLNCGVYGWTQHKFHQLKQEARRDADTQTPLLCSQKRFYSRGLNSLESTLTFPASTSTIF
notes: TMEM116; protein on the human proteome microarray; source: spotted on the HuProt human proteome microarray
B9: TST (natural protein, human, UniProt Q16762 1-297, looked up)
chain: MVHQVLYRALVSTKWLAESIRTGKLGPGLRVLDASWYSPGTREARKEYLERHVPGASFFDIEECRDTASPYEMMLPSEAGFAEYVGRLGISNHTHVVVYDGEHLGSFYAPRVWWMFRVFGHRTVSVLNGGFRNWLKEGHPVTSEPSRPEPAVFKATLDRSLLKTYEQVLENLESKRFQLVDSRSQGRFLGTEPEPDAVGLDSGHIRGAVNMPFMDFLTEDGFEKGPEELRALFQTKKVDLSQPLIATCRKGVTACHVALAAYLCGKPDVAVYDGSWSEWFRRAPPESRVSQGKSEKA
notes: TST; protein on the human proteome microarray; source: spotted on the HuProt human proteome microarray
B10: RBM3 (natural protein, human, UniProt P98179 1-157, looked up)
chain: MSSEEGKLFVGGLNFNTDEQALEDHFSSFGPISEVVVVKDRETQRSRGFGFITFTNPEHASVAMRAMNGESLDGRQIRVDHAGKSARGTRGGGFGAHGRGRSYSRGGGDQGYGSGRYYDSRPGGYGYGYGRSRDYNGRNQGGYDRYSGGNYRDNYDN
notes: RBM3; protein on the human proteome microarray; source: spotted on the HuProt human proteome microarray
B11: TK1 (natural protein, human, UniProt P04183 1-234, looked up)
chain: MSCINLPTVLPGSPSKTRGQIQVILGPMFSGKSTELMRRVRRFQIAQYKCLVIKYAKDTRYSSSFCTHDRNTMEALPACLLRDVAQEALGVAVIGIDEGQFFPDIVEFCEAMANAGKTVIVAALDGTFQRKPFGAILNLVPLAESVVKLTAVCMECFREAAYTKRLGTEKEVEVIGGADKYHSVCRLCYFKKASGQPAGPDNKENCPVPGKPGEAVAARKLFAPQQILQCSPAN
notes: TK1; protein on the human proteome microarray; source: spotted on the HuProt human proteome microarray
B12: SRXN1 (natural protein)
chain: not shown
notes: SRXN1; protein on the human proteome microarray; source: spotted on the HuProt human proteome microarray
B13: AKR1C3 (natural protein, human, UniProt P42330 1-323, looked up)
chain: MDSKHQCVKLNDGHFMPVLGFGTYAPPEVPRSKALEVTKLAIEAGFRHIDSAHLYNNEEQVGLAIRSKIADGSVKREDIFYTSKLWSTFHRPELVRPALENSLKKAQLDYVDLYLIHSPMSLKPGEELSPTDENGKVIFDIVDLCTTWEAMEKCKDAGLAKSIGVSNFNRRQLEMILNKPGLKYKPVCNQVECHPYFNRSKLLDFCKSKDIVLVAYSALGSQRDKRWVDPNSPVLLEDPVLCALAKKHKRTPALIALRYQLQRGVVVLAKSYNEQRIRQNVQVFEFQLTAEDMKAIDGLDRNLHYFNSDSFASHPNYPYSDEY
notes: AKR1C3; protein on the human proteome microarray; source: spotted on the HuProt human proteome microarray
B14: RPP25 (natural protein, human, UniProt Q9BUL9 1-199, looked up)
chain: MENFRKVRSEEAPAGCGAEGGGPGSGPFADLAPGAVHMRVKEGSKIRNLMAFATASMAQPATRAIVFSGCGRATTKTVTCAEILKRRLAGLHQVTRLRYRSVREVWQSLPPGPTQGQTPGEPAASLSVLKNVPGLAILLSKDALDPRQPGYQPPNPHPGPSSPPAAPASKRSLGEPAAGEGSAKRSQPEPGVADEDQTA
notes: RPP25; protein on the human proteome microarray; source: spotted on the HuProt human proteome microarray
B15: TAF9B (natural protein, human, UniProt Q9HBM6 1-251, looked up)
chain: MESGKMAPPKNAPRDALVMAQILKDMGITEYEPRVINQMLEFAFRYVTTILDDAKIYSSHAKKPNVDADDVRLAIQCRADQSFTSPPPRDFLLDIARQKNQTPLPLIKPYAGPRLPPDRYCLTAPNYRLKSLIKKGPNQGRLVPRLSVGAVSSKPTTPTIATPQTVSVPNKVATPMSVTSQRFTVQIPPSQSTPVKPVPATTAVQNVLINPSMIGPKNILITTNMVSSQNTANEANPLKRKHEDDDDNDIM
notes: TAF9B; protein on the human proteome microarray; source: spotted on the HuProt human proteome microarray
B16: QKI (natural protein, human, UniProt Q96PU8 1-341, looked up)
chain: MVGEMETKEKPKPTPDYLMQLMNDKKLMSSLPNFCGIFNHLERLLDEEISRVRKDMYNDTLNGSTEKRSAELPDAVGPIVQLQEKLYVPVKEYPDFNFVGRILGPRGLTAKQLEAETGCKIMVRGKGSMRDKKKEEQNRGKPNWEHLNEDLHVLITVEDAQNRAEIKLKRAVEEVKKLLVPAAEGEDSLKKMQLMELAILNGTYRDANIKSPALAFSLAATAQAAPRIITGPAPVLPPAALRTPTPAGPTIMPLIRQIQTAVMPNGTPHPTAAIVPPGPEAGLIYTPYEYPYTLAPATSILEYPIEPSGVLGAVATKVRRHDMRVHPYQRIVTADRAATGN
notes: QKI; protein on the human proteome microarray; source: spotted on the HuProt human proteome microarray
B17: SULT1C2 (natural protein, human, UniProt O00338 1-296, looked up)
chain: MALTSDLGKQIKLKEVEGTLLQPATVDNWSQIQSFEAKPDDLLICTYPKAGTTWIQEIVDMIEQNGDVEKCQRAIIQHRHPFIEWARPPQPSGVEKAKAMPSPRILKTHLSTQLLPPSFWENNCKFLYVARNAKDCMVSYYHFQRMNHMLPDPGTWEEYFETFINGKVVWGSWFDHVKGWWEMKDRHQILFLFYEDIKRDPKHEIRKVMQFMGKKVDETVLDKIVQETSFEKMKENPMTNRSTVSKSILDQSISSFMRKGTVGDWKNHFTVAQNERFDEIYRRKMEGTSINFCMEL
notes: SULT1C2; protein on the human proteome microarray; source: spotted on the HuProt human proteome microarray
B18: SRA1 (natural protein, human, UniProt Q9HD15 1-224, looked up)
chain: MAELYVKPGNKERGWNDPPQFSYGLQTQAGGPRRSLLTKRVAAPQDGSPRVPASETSPGPPPMGPPPPSSKAPRSPPVGSGPASGVEPTSFPVESEAVMEDVLRPLEQALEDCRGHTRKQVCDDISRRLALLQEQWAGGKLSIPVKKRMALLVQELSSHRWDAADDIHRSLMVDHVTEVSQWMVGVKRLIAEKRSLFSEEAANEEKSAATAEKNHTIPGFQQAS
notes: SRA1; protein on the human proteome microarray; source: spotted on the HuProt human proteome microarray
B19: SPRR4 (natural protein, human, UniProt Q96PI1 1-79, looked up)
chain: MSSQQQQRQQQQCPPQRAQQQQVKQPCQPPPVKCQETCAPKTKDPCAPQVKKQCPPKGTIIPAQQKCPSAQQASKSKQK
notes: SPRR4; protein on the human proteome microarray; source: spotted on the HuProt human proteome microarray
B20: SULT1B1 (natural protein)
chain: not shown
notes: SULT1B1; protein on the human proteome microarray; source: spotted on the HuProt human proteome microarray

The target in the experiment is T1, OTULIN (OTU deubiquitinase with linear linkage specificity, FAM105B), His-tagged, biotin-labelled (human, UniProt Q96BN8 1-352, biotin (label; sites not stated)).
T1 construct: OTULIN (FAM105B), cDNA in pET28a; also called HIS-OTULIN; source: E. coli BL21 (DE3), purified (His-tag Purification Resin), labelled with biotin; not shown: His6, N-terminal, kept
The experiment in a line: peptide or protein array; HuProt human proteome microarray; 5 ug/5 ml biotin-labelled LUBAC or OTULIN in solution, 1 h at room temperature; Cy5-streptavidin, scanned at 635 nm; BSA as negative control; hits: Z-score >= 3 and I_(Mean_Ratio) >= 1.4. As to conditions: both partners purified.
With B1, the binding result was “binds”.

Regarding B2, the binding result is recorded as “binds”.

With B3, the binding result is “binds”.

Regarding B4, the binding result was “binds”.

With B5, the binding result was “binds”.

Turning to B6, the binding result was “binds”.

Turning to B7, the binding result was “binds”.

On to B8, for which the binding result is on record as “binds”.

Turning to B9, the binding result is recorded as “binds”.

Take B10: the binding result is “binds”.

For the molecule B11, the binding result is recorded as “binds”.

Consider B12, for which the binding result is recorded as “binds”.

Consider B13, for which the binding result was “binds”.

Consider B14, for which the binding result was “binds”.

Turning to B15, the binding result is “binds”.

With B16, the binding result is “binds”.

Regarding B17, the binding result is recorded as “binds”.

As for B18, the binding result is “binds”.

For B19, the binding result was “binds”.

Turning to B20, the binding result was “binds”.

The record behind these values is publication PMC8274477 (Frontiers in Cell and Developmental Biology, 2021).
